B1: OR4K15 (parent)
chain: GUUAACGGUCAUAGGCCAUGGAAACUAGGAGCACCAUUUCGCUGCCAGUGAAGAAAUGAACAAAGAAAAUCUGGGCCAGGCAGGCAUCAAAAGAAAUAGUCUUGCGCUCAACCAGAAAGUCUGUAAUCAUUUUAAGGGUA

The variants in this data set derive from B1. In words: self-cleavage, relative activity (ratio to wild type); higher = more cleavage; in vitro, sequencing; the parent is a self-cleaving ribozyme.
On to GCUAACGGUCAUAGGCCAUGGAUACUAGGAGCACCAUUUCGCUGCCAGUGAAGAAAUGAACAAAGAAAAUCUGGGCCAGGCAGGCAUCAAAAGAAAUAGUCUUGCGCUCAACCAGAAAGUCUGUAAUCAUUUUAAGGGUA, for which the self-cleavage was 1.22. For GUUAACGGUCAUAGGCCAUGGAAACCAGGAGCACCAUUUCGCUGCCAGUGAAGAAAUGAACAAAGAAAGUCUGGGCCAGGCAGGCAUCAAAAGAAAUAGUCUUGCGCUCAACCAGAAAGUCUGUAAUCAUUUUAAGGGUA the value was 1.46; for GUUAACGGCCAUAGGCCAUGGAAACUAGGAGCACCAUUUCGCUGCCAGUGAAGAAAUGAACAAAGAAAAUCUGGGCCAGGCAGGCAUCUAAAGAAAUAGUCUUGCGCUCAACCAGAAAGUCUGUAAUCAUUUUAAGGGUA, 1.25; for GUUAACGAUCAUAGGCCAUGGAAACUAGGAGCACUAUUUCGCUGCCAGUGAAGAAAUGAACAAAGAAAAUCUGGGCCAGGCAGGCAUCAAAAGAAAUAGUCUUGCGCUCAACCAGAAAGUCUGUAAUCAUUUUAAGGGUA, 0.52. As for GUUAACGGUCAUAGGCCAUGGAAACUAGGAGCACCAUUUCGCUGCCGGUGAAGAAAUGAACAAAGAAAAUCUGGGCCAGGCAGGCAUCAAAAGAAGUAGUCUUGCGCUCAACCAGAAAGUCUGUAAUCAUUUUAAGGGUA, the self-cleavage came out at 1.18. Turning to GUUAACGGUCAUAGGCCAUGGAAACUAGGAGCACCAUUUCUCUGCCAGUGAAGAAAUGAACAAAGAAGAUCUGGGCCAGGCAGGCAUCAAAAGAAAUAGUCUUGCGCUCAACCAGAAAGUCUGUAAUCAUUUUAAGGGUA, the self-cleavage was found to be 1.46. Take GUUAACGGUCAUAGGCCAUGGAAACUAGGAGCACCAUUUCGCUGCCAGUGAAGAAAUGAACAAAGAAAAUCUGGGCCAGGCAGGCAUCAAAAGAAAUAGUCUUGCGCUCAACCAGAAAGUCUGUAGUCAUGUUAAGGGUA: the self-cleavage is 1.23. On to GUUAACGGUCAUAGGCCAUGGAAACUAGGAGCACCACUUCGCUGCCAGUGAAGAAAUGUACAAAGAAAAUCUGGGCCAGGCAGGCAUCAAAAGAAAUAGUCUUGCGCUCAACCAGAAAGUCUGUAAUCAUUUUAAGGGUA, for which the self-cleavage turned out to be 1.91. Take GUUAACGGUCAUAGGCCAUGGAAACUAGGGGCACCAUUUCGCUGCCUGUGAAGAAAUGAACAAAGAAAAUCUGGGCCAGGCAGGCAUCAAAAGAAAUAGUCUUGCGCUCAACCAGAAAGUCUGUAAUCAUUUUAAGGGUA: the self-cleavage is 1.27.

GUUAACGGUCAUAGGCCAUGGAAACUAGGAGCACCUUUUCGCUGCCAGUGAAGAAAUGAACAAAGAAAAUCUGGGCCAGGCAGGCAUCAAAAGAAAUAGUCUUGCGCUCAACCAGAAAGUCUGUAAUCAUUUUACGGGUA: the self-cleavage turned out to be 1.65.

For GUUAACGGUCAUAGGCCAUGGAAACUAGGAGCACCAUUUCGCUGCCAGUGAAGAAAUGAACAAAGAAAAUCUGGGCCAGGCCGGCAUCAAAAGAAAUAGUCUUGCGCUCAACCAGAGAGUCUGUAAUCAUUUUAAGGGUA, the self-cleavage is 0.15. As to GUUAACGGUCAUAGGCCAUGGAAACUAGGAGCACCAUUUCGCUGCCAGUGAAGAAAUGAACAAAGAAAAUCUGAGCCAGGCAGGCAUCAAAAGAACUAGUCUUGCGCUCAACCAGAAAGUCUGUAAUCAUUUUAAGGGUA, the self-cleavage is 0.14. For the variant GUUAACGGUCAUAGGCCAUGGAAACUAGGAGCACCAUUUCGCUACCAGUGAAGAAAUGAACAAAGAAAAUCUGGGCCAGGCAGGCAUCAAAAGAAAUAGUCCUGCGCUCAACCAGAAAGUCUGUAAUCAUUUUAAGGGUA, the self-cleavage is 2.14.

As for GUUAACGUUCAUAGGCCAUGGAAACUAGGAGCACCAUUUCGCUGCCAGUGAAGAAAUGAACAAAGAAAAUCUGGGCCAGGCAGGCAUCAAAAGGAAUAGUCUUGCGCUCAACCAGAAAGUCUGUAAUCAUUUUAAGGGUA, the self-cleavage was found to be 1.98. GUUAACGGUCAUAGGCCAUGGAAACUAGGAGCACCAUUUCGCUGCCAGUGAAGAAAUGAACAAAGAUAAUCUGGGCCAGGCAGGUAUCAAAAGAAAUAGUCUUGCGCUCAACCAGAAAGUCUGUAAUCAUUUUAAGGGUA: the self-cleavage is 1.15. On to GUUAACGGUCAUAGGCCAUGGAAACUAGGAGCACCAUUUCGCUGCCAGUGAAGAGAUGAACAAAGAAAAUCUGGGCCAGGCAGGCAUCAAAAGAAAUAGUCUUGCGCUCAACCAUAAAGUCUGUAAUCAUUUUAAGGGUA, for which the self-cleavage came to 0.03. Take GUUAACGGUCAUAGGCCAUGGAAACUAGGGGCACCAUUUCGCUGCCAGUGAAGAAAUGAACAAAGAAAAUCUGGGCCAGGCAGGCAUCAAAAGAAAUAGUCUUGCGCUCAACCAGAAAGUCUGUAAUCAUUUUAAGUGUA: the self-cleavage amounted to 0.71. In the case of GUUAACGGUCAUAGGCCAUGGAAACUAGGAGCACCAUCUCGCUGCCAGUGAAGAAAUGAACAAAGAAAAUCUGGGCCAGGCAGGCAUCAAAAGAGAUAGUCUUGCGCUCAACCAGAAAGUCUGUAAUCAUUUUAAGGGUA, the self-cleavage is 1.58.

For the variant GUUAGCGGUCAUAGGCCAUGGAAACUAGGAGCACCAUUUCGCUGCCAGUGAAGAAAUGAACAAAGAAAAUCUGGGCCAGGCAGGCAUCAAAAGAAACAGUCUUGCGCUCAACCAGAAAGUCUGUAAUCAUUUUAAGGGUA, the self-cleavage amounted to 1.25. As to GUUAACGGUCAUAGGCCAUGGAAACUAGGAGCACCAUUUCGCUGCCAGUGAAGAAAUGAACAAAGAAAAUCUGGGCCAGGCAGGCAUCAGAAGAAAUAGUCUUGCGCUCAACCAGAAAGUCUGUAAUCAUUUUGAGGGUA, the self-cleavage turned out to be 1.35. In the case of GUUAACGGUCAUAGGCCAUGGAAACUAGGAGCACCAUUUCGCUGCCAGUGAAGAAAUGAACAAAGAAAAUCUGGGCCAGGCAGGCCUCAAAAGAAAUAGUCUUGCGCACAACCAGAAAGUCUGUAAUCAUUUUAAGGGUA, the self-cleavage stood at 0.16. Take GUUAACGGUCAUAGGCCAUGGAAACUAGGAGCACCAUUUCGCUGCCAGUGAAGAAAUGAACAUAGAAAAUCUGGGCCAGGCAGGCAUCAAAAGAAAUAGUCUUGCGCUCAACCAGAAUGUCUGUAAUCAUUUUAAGGGUA: the self-cleavage was determined as 1.02. In the case of GUUAACGGUCAUAGGCCGUGGAAACUAGGAGCACCAUUUCGCUGCCAGUGAAGAAAUGAACAAAGAAAAUCUGGGCCAGGCAGGCAUCAAAAGAACUAGUCUUGCGCUCAACCAGAAAGUCUGUAAUCAUUUUAAGGGUA it was 1.68; in that of GUUAACGGUCAUAGGCCAUGGAAACUAGGAGCACCAUUUCGCUGCCAGUGAAGAAAUGAACAAAGAAAAUCUGGGCCAGGCGGGCAUCAAAAGAAAUAGUCUUGCGCUCAACCAGAAAGUCUGUAAUCAUUUUAAAGGUA, 0.9. On to GUUAACGGCCAUAGGCCAUGGAAACUAGGAGCACCAUUUCGCUGCCAGUGAAGAAAUGAACAAAGAAGAUCUGGGCCAGGCAGGCAUCAAAAGAAAUAGUCUUGCGCUCAACCAGAAAGUCUGUAAUCAUUUUAAGGGUA, for which the self-cleavage amounted to 1.51. For the variant GUUAACGGUCAUAGGCCAUGGAAACUAGGAGCACCAUUUCGCUGCCAGUGAAGAAAUGGACAAAGAAAAUCUGGGCCAGGCAGGCAUCAAAAAAAAUAGUCUUGCGCUCAACCAGAAAGUCUGUAAUCAUUUUAAGGGUA, the self-cleavage was 1.61. For GUUAACGGUCAUAGGCCAUGGAAACUAGGAGCUCCAUUUCGCUGCCAGUGAAGAGAUGAACAAAGAAAAUCUGGGCCAGGCAGGCAUCAAAAGAAAUAGUCUUGCGCUCAACCAGAAAGUCUGUAAUCAUUUUAAGGGUA the value was 1.84. As for GUUAACGGUCAUACGCCAUGGAAACUAGGAGCACCAUUUCGCUGCCAGUGAAGAAAUGAACAAAGAAAAUCUGGGCCAGGCAGGCAUCAAAAGAAAUAGUCUUGCGCUCAACCAGAAUGUCUGUAAUCAUUUUAAGGGUA, the self-cleavage is 0.78. Turning to GUUAACGGUCAUAGGCCAUGGAAACUAGGAGCACCAUUUCGCUGCCAGUGAAGAAAUGAACAAAGAAAAUCAGGGCCAGGCAGGCAUCAAAAGAAAUAGUCUUGCGCUCAUCCAGAAAGUCUGUAAUCAUUUUAAGGGUA, the self-cleavage came out at 0.01.

With GUUAACGGUCAUAGGCCAUGGAAACUAGGAGCACCAUUUCGCUGCCAGUGAAGAAAUGAACAUAGAAAAUCUGGGCCAGGCAGGCAUCAAAGGAAAUAGUCUUGCGCUCAACCAGAAAGUCUGUAAUCAUUUUAAGGGUA, the self-cleavage was determined as 1.88. GUUAACGGUCAUAGGCCAUGGUAGCUAGGAGCACCAUUUCGCUGCCAGUGAAGAAAUGAACAAAGAAAAUCUGGGCCAGGCAGGCAUCAAAAGAAAUAGUCUUGCGCUCAACCAGAAAGUCUGUAAUCAUUUUAAGGGUA: the self-cleavage was found to be 1.01.

Turning to GUUAACGGUCAUAGGCCAUGGAAACUAGGAGCACCAUUUCGCUGCCAGUGAAGAAAUGAACAAAGAAAAUCUGGGCCGGGCAGGCAUCAAAAGAAUUAGUCUUGCGCUCAACCAGAAAGUCUGUAAUCAUUUUAAGGGUA, the self-cleavage is 0.4. In the case of GUUAACGGUCAUAGGCCAUGGAAACUAGGAGCACCAUUUCGCUGCCAGUGAAGAAGUGAACAAAGAAAAUCUGGGCCGGGCAGGCAUCAAAAGAAAUAGUCUUGCGCUCAACCAGAAAGUCUGUAAUCAUUUUAAGGGUA it was 0.25. For GUUAACGGUCAUAGGCCAUGGAAACUAGGAGCACCAUUUCGCUGCCAGUGAAGAAAUGAACAAAGAAAAUCUGGGCCAGGCAGGCAUCAAAAGUAAUAGUCUUGCGCUCAACCAGAAAGUCUGCAAUCAUUUUAAGGGUA the value was 1.66; for GUUAACGGUCAUAGGCCAUGGAAACUAGGGGCACCAUUUCGCUGCCAGUGAAGAAUUGAACAAAGAAAAUCUGGGCCAGGCAGGCAUCAAAAGAAAUAGUCUUGCGCUCAACCAGAAAGUCUGUAAUCAUUUUAAGGGUA, 1.02.

For GUUAACGGUCAUAGGCCAUGGAAACUAGGAGCACCAUUUCACUGCCAGUGAAGAAAUGAACAAAGAAAAUCUGGGCCAGGCAGGCAUCAAAAGAAAUAGUCUUGCGCUCGACCAGAAAGUCUGUAAUCAUUUUAAGGGUA, the self-cleavage was found to be 0.12. In the case of GUUAACGGUCAUAGGCCAUGGGAACUAGGAGCACCAUUUCGCUGCCAGUGAAGAAAUGAACAUAGAAAAUCUGGGCCAGGCAGGCAUCAAAAGAAAUAGUCUUGCGCUCAACCAGAAAGUCUGUAAUCAUUUUAAGGGUA, the self-cleavage was 1.15. In the case of GUUAACGGUCAUAGGCCAUGGAAACUAGGAGCACCAUCUCGCUGCCAGUGAAGAAAUGAACAAAGAAAAUCUGGGCCAGGCAGGCAUCAAAAGAAAUAGUCUUGCGCUAAACCAGAAAGUCUGUAAUCAUUUUAAGGGUA it was 0.51; in that of GUUAACGGUCAUAGGCCAUGGAAACUAGGAGCACCAUUUCGCUGCCAGUGAAGAAAUGAACAAAGAAAAUCUGGGCCAGGCAGGCAUCAAAAGAAAUAGUCUUGCGCUCAACCAGAAAGUCUGUAAUCAUUUUGAGUGUA, 0.44. For the variant GUUAACGGUCAUAGGCCUUGGAAACUAGGAGCACCAUUUCGCUGCCUGUGAAGAAAUGAACAAAGAAAAUCUGGGCCAGGCAGGCAUCAAAAGAAAUAGUCUUGCGCUCAACCAGAAAGUCUGUAAUCAUUUUAAGGGUA, the self-cleavage was found to be 0.78. For GUUAACGGUCAUAGGCCAUGGAAACUAGGAGCACCAUUUCGCUGCCAGUGGAGAAAUGAAGAAAGAAAAUCUGGGCCAGGCAGGCAUCAAAAGAAAUAGUCUUGCGCUCAACCAGAAAGUCUGUAAUCAUUUUAAGGGUA, the self-cleavage was 0.99.

The values above are taken from the RNAGym collection of RNA variant scans (doi:10.7554/elife.90254).
